Results: the supplement of paper PMC9170038

System: MS2 coat protein
Experiment: apparent KD of MS2 coat protein; higher = weaker reporter binding
Settings: Eterna round: R107
Method: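 RNA-MaP round R107: designed RNA switches with theophylline, tryptophan, arginine or FMN aptamers are transcribed on-chip within common flanks. They are titrated with SNAP-549-labelled MS2 coat protein in RNA-MaP buffer (100 mM Tris pH 7.5, 80 mM KCl, 4 mM MgCl2), without ligand or with the indicated ligand. Median apparent KD per design.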

[1] = input ligand: theophylline 20 uM
[2] = input ligand: tryptophan 2.4 mM
[3] = input ligand: theophylline 2 mM

ACCUCACUCUCUGAUACCAGCUAAUAACAUGAGGAUCACCCAUGUCAGACUUGUAUUGAUAGCCCUUGGCAGCAGAGGUAACUGC [Theo B Ex t2]
apparent KD of MS2 coat protein (input ligand: arginine 13.2 mM): 9.42 nM
apparent KD of MS2 coat protein [1]: 11.9 nM
apparent KD of MS2 coat protein [2]: 10.6 nM

ACCUCAUGUAGAAGGAGCGUCAGAAGCUACAGACAUGAGGAUCACCCAUGUUAGUUGAUCUGACAGGUAGGUCGCUACAGCAGGA [#23 Same State - Arginine B]
apparent KD of MS2 coat protein (input ligand: arginine 13.2 mM): 24.1 nM
apparent KD of MS2 coat protein (input ligand: none): 32.3 nM
apparent KD of MS2 coat protein [1]: 43.9 nM
apparent KD of MS2 coat protein [3]: 35.6 nM
apparent KD of MS2 coat protein [2]: 31.8 nM

ACCUGUACGAAAAGUGCAGGACACGGAAUACGAGGACCGGUACGGCCGCCACUCGGAAAACCUGAGGAUCACCCUGGUAACCGUG [TrypAS 11 #AlternativeMS2 #Zipper #StaticStem]
apparent KD of MS2 coat protein (input ligand: arginine 13.2 mM): 21.6 nM
apparent KD of MS2 coat protein (input ligand: none): 16.3 nM
apparent KD of MS2 coat protein [1]: 22.3 nM
apparent KD of MS2 coat protein [3]: 25 nM
apparent KD of MS2 coat protein [2]: 22.1 nM

ACCUGUACGAAAAGUGCAGGACAUGGAAAUCGAGGACCGGUACGGCCGCCACUCGUUGAAAACAAGUGGAUCACCCUUGUCCAUG [TrypAS 3 #AlternativeMS2 #Zipper #StaticStem]
apparent KD of MS2 coat protein (input ligand: arginine 13.2 mM): 35.3 nM
apparent KD of MS2 coat protein (input ligand: none): 417 nM
apparent KD of MS2 coat protein [1]: 764 nM
apparent KD of MS2 coat protein [3]: 872 nM
apparent KD of MS2 coat protein [2]: 1070 nM

ACGACGCAUAGUGAUACCAGUAGAACAUGAGGAUCACCCAUGUCAGAUAUGUUCUAAUACUGCCCUUGGCAGCACUAUGCGUCAG [SSTheo B #4]
apparent KD of MS2 coat protein (input ligand: arginine 13.2 mM): 144 nM
apparent KD of MS2 coat protein [1]: 344 nM
apparent KD of MS2 coat protein [2]: 299 nM

ACGAUAGGACAUGAGGAUCACCCAUGUGAUACCAGCCUGGAAACAGGCCCUUGGCAGCACAAAUACUCCAGAAACCUAUCGAAAA [MAT - Exclusion Theophlline A - Mod of Eli - D5]
apparent KD of MS2 coat protein (input ligand: arginine 13.2 mM): 103 nM
apparent KD of MS2 coat protein [1]: 263 nM
apparent KD of MS2 coat protein [2]: 337 nM

ACGAUAGGACCUGAGGAUCACCCUGGUGAUACCAGCCUGGAAACAGGCCCUUGGCAGCACAAAUACUCCAAUAACCUAUCGAAUA [TheoAX 13 #MicroSwitchBubble #AlternativeMS2]
apparent KD of MS2 coat protein (input ligand: arginine 13.2 mM): 245 nM
apparent KD of MS2 coat protein (input ligand: none): 611 nM
apparent KD of MS2 coat protein [1]: 698 nM
apparent KD of MS2 coat protein [3]: 1100 nM
apparent KD of MS2 coat protein [2]: 1070 nM

ACGUAAAGCAGAAGGAGCGUCUUCAAUUUACAUGAGGAUCACCCAUGUUUUGUGAUCAUAUGACAGGUAGGUCGCUGAAGUACGA [JR_SSArginiB_Sub002]
apparent KD of MS2 coat protein (input ligand: arginine 13.2 mM): 85.9 nM
apparent KD of MS2 coat protein [1]: 152 nM
apparent KD of MS2 coat protein [3]: 141 nM
apparent KD of MS2 coat protein [2]: 123 nM

ACGUAAUGCAGAAGGAGCGUCAACCUCUUACAUGAGGAUCACCCAUGUUACAUGGUUGUAUGACAGGUAGGUCGCUGAAGUACGA [JR_ExcArginiB_Sub001]
apparent KD of MS2 coat protein (input ligand: arginine 13.2 mM): 31.9 nM
apparent KD of MS2 coat protein (input ligand: none): 34.7 nM
apparent KD of MS2 coat protein [1]: 50.5 nM
apparent KD of MS2 coat protein [3]: 50.4 nM
apparent KD of MS2 coat protein [2]: 36.6 nM

ACGUCUCGAAAACUCGUAGUAACUAUAGAUACCAGUAGCGAGAGUUACCCUUGGCAGCUACAUGAGGAUCACCCAUGUACGAGGA [XTheo A #28]
apparent KD of MS2 coat protein (input ligand: arginine 13.2 mM): 16.4 nM
apparent KD of MS2 coat protein [1]: 20.9 nM
apparent KD of MS2 coat protein [2]: 15.1 nM

ACUCGAGGUGGAAGGAGCGGGAGACAUGAGCAUCACAUGAGGAUCACCCAUGUAGGAUCAUCCCAGGUAGGUCGCCAUGUCGAAA [avtamullin]
apparent KD of MS2 coat protein (input ligand: arginine 13.2 mM): 105 nM
apparent KD of MS2 coat protein (input ligand: none): 217 nM
apparent KD of MS2 coat protein [1]: 147 nM
apparent KD of MS2 coat protein [3]: 276 nM
apparent KD of MS2 coat protein [2]: 165 nM

ACUGUCUUUGAUGAUAUGUAUGGGUCAUUGCGAGGACCGGUACGGCCGCCACUCGGUCCGCCACAUGAGGAUCACCCAUGUCUAU [theeternabot_exclusion_MS2_Trp_A_37]
apparent KD of MS2 coat protein (input ligand: arginine 13.2 mM): 56.8 nM
apparent KD of MS2 coat protein [1]: 94.6 nM
apparent KD of MS2 coat protein [3]: 195 nM

AGAACCCAAGAGGAUACCAGAACGACAAUCAAAUCUUUUUACAUGAGGAUCACCCAUGUUUUCCCUUGGCAGCCUCAUGCACGAC [theeternabot_exclusion_MS2_Theo_B_43]
apparent KD of MS2 coat protein (input ligand: arginine 13.2 mM): 47.1 nM
apparent KD of MS2 coat protein [1]: 108 nM
apparent KD of MS2 coat protein [2]: 59.6 nM

AGACAUGAGGAUCACCCAUGUAGUACGGAUACCAGAUCCAGAUGCGUCCCUUGGCAGCUGUGGUACAGCGUUACAUCGCUCGUAG [Exclusion - Theophylline A (Freestyle 23)]
apparent KD of MS2 coat protein (input ligand: arginine 13.2 mM): 16 nM
apparent KD of MS2 coat protein [1]: 29.9 nM
apparent KD of MS2 coat protein [2]: 18.6 nM
